In test [1] the target is T1, human CSF-1R (Colony stimulating factor 1 receptor) (human, UniProt P07333 20-972, limits assumed).
T1 construct: also called M-CSF receptor; c-fms
Put plainly: Western blot of cell lysates: lane 2 NIH3T3 wt, lane 3 NIH 3T3+CSF1 K4, lane 4 NIH 3T3+CSF1 K8 [continued]. Background: Immunoblotting shows a protein as a band on a membrane.

In test [2] the target is T2, phosphorylated TtSlyD-CSF1R.
T2 sequence (chain, tyrosines phosphorylated in vitro with Src (1-530) kinase; positions not stated): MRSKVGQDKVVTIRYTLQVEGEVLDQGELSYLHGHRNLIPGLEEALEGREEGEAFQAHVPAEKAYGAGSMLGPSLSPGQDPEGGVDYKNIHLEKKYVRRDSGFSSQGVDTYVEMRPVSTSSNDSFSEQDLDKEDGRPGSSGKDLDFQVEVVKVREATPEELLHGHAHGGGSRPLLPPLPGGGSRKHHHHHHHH
Put plainly: SPR (Biacore), antibody captured on anti-rabbit F(ab)2, analyte in solution, Langmuir fit, 25 C.

In the next test the target is T3, TtSlyD-CSF1R.
T3 construct: also called 21 kDa TtSlyD-CSF1R protein
T3 chain: T2 sequence (chain, tyrosines phosphorylated in vitro with Src (1-530) kinase; positions not stated)
Put plainly: SPR (Biacore), captured antibody, single injection of 300 nM analyte. The protocol: A Biacore B3000 instrument (GE Healthcare) was used to kinetically assess the rabbit antibodies for kinetics and binding specificity for TtSlyD-CSF1R. A CMS series sensor was mounted into the system and was normalized in HBS-ET buffer (10 mM HEPES pH 7.4, 150 mM NaCl, 3 mM EDTA, 0.005% w/v Tween 20) according to the manufacturer's instructions. The sample buffer was the system buffer supplemented with 1 mg/ml CMD (Carboxymethyldextran, Sigma #86524). The system operated at 25° C. 10000 RU GAR<F(ab)2> (relative units of goat anti rabbit F(ab)2/Jackson Laboratories, cat. No. 100018) were immobilized according to the manufacturer's instructions using EDC/NHS chemistry on all flow cells. The sensor was saturated with 1M ethanolamine. The binding activity of the antibodies against the analytes were kinetically tested. […] Antibodies were captured by a 2 min injection at 10 μl/min of cell culture HEK supernatant diluted 1:2 in sample buffer. The flow rate was set to 100 μl/min. The analyte was injected at different concentration steps of 0 nM, 1.1 nM, 3.7 nM, 11.1 nM, […], 100 nM and 300 nM for 2 min. The dissociation was monitored for 5 min. Kinetic signatures were monitored and evaluated using the Biaevaluation Software and a binary Langmuir Fitting model with RMAX local. […]
(Surface plasmon resonance follows binding to a sensor surface in real time, without labels.)

For test [3], the target named is T4, SEQ ID NO 16: G-V-D-pY-K-N-I-H-L-E-K-K-pY-V-R.
T4 sequence (peptide, phosphotyrosine (pY) at positions 4 and 13): GVDYKNIHLEKKYVR
Put plainly: CelluSpots peptide array, 15-mer CSF-1R peptides in duplicate.

Test [4] deals with T5, SEQ ID NO 18: D-pY-K-N-I-H-L-E-K-K-pY-V-R-R-D.
T5 sequence (peptide, phosphotyrosine (pY) at positions 2 and 11): DYKNIHLEKKYVRRD
Described as above.

The target in test [5] is T6, SEQ ID NO 20: K-N-I-H-L-E-K-K-pY-V-R-R-D-S-G.
T6 sequence (peptide, phosphotyrosine (pY) at position 9): KNIHLEKKYVRRDSG
The description is as above.

Test [6] deals with T7, SEQ ID NO: 14: E-G-G-V-D-pY-K-N-I-H-L-E-K-K-pY.
T7 sequence (peptide, phosphotyrosine (pY) at positions 6 and 15): EGGVDYKNIHLEKKY
The description is as above.

Test [7] deals with T8, SEQ ID NO 19: pY-K-N-I-H-L-E-K-K-pY-V-R-R-D-S.
T8 sequence (peptide, phosphotyrosine (pY) at positions 1 and 10): YKNIHLEKKYVRRDS
Described as above.

Test [8] concerns the target T9, SEQ ID NO 15: G-G-V-D-pY-K-N-I-H-L-E-K-K-pY-V.
T9 sequence (peptide, phosphotyrosine (pY) at positions 5 and 14): GGVDYKNIHLEKKYV
The description is as above.

Test [9] addresses T10, SEQ ID NO: 13: P-E-G-G-V-D-pY-K-N-I-H-L-E-K-K.
T10 sequence (peptide, phosphotyrosine (pY) at position 7): PEGGVDYKNIHLEKK
The test is described as above.

For test [10], the target named is T11, SEQ ID NO 21: N-I-H-L-E-K-K-pY-V-R-R-D-S-G-F.
T11 sequence (peptide, phosphotyrosine (pY) at position 8): NIHLEKKYVRRDSGF
The description is as above.

Test [11] addresses T12, SEQ ID NO 17: V-D-pY-K-N-I-H-L-E-K-K-pY-V-R-R.
T12 sequence (peptide, phosphotyrosine (pY) at positions 3 and 12): VDYKNIHLEKKYVRR
The description is as above.

T1 sequence (P07333 other isoform, or with tags, fused parts or gaps limits assumed): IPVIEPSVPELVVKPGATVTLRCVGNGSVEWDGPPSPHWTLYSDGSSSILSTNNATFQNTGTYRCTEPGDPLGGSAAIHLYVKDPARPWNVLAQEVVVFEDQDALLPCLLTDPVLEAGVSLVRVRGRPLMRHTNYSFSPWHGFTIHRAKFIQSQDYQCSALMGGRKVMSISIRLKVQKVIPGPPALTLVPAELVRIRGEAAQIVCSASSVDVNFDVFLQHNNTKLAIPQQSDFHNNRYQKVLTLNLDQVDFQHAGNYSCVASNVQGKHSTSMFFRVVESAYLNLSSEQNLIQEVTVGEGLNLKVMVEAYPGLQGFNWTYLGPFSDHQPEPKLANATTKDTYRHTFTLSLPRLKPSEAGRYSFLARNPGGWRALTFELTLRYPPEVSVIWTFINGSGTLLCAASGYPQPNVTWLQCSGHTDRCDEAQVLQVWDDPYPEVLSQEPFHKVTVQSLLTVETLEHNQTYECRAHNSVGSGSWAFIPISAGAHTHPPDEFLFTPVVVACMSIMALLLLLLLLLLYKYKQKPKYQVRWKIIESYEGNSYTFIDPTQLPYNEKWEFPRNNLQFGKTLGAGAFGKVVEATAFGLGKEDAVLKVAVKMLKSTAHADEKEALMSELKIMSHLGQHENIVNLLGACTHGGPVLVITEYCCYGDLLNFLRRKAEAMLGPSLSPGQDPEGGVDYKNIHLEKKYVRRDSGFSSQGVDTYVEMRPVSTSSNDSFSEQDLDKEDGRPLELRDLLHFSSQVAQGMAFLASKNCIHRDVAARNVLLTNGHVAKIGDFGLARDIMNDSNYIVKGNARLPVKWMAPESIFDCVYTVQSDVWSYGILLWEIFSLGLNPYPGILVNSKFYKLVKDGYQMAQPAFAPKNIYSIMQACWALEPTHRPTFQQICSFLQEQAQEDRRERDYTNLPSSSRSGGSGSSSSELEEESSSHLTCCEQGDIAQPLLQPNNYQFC

B1: antibody 1H11 (antibody, V domains shown)
VH: QSVEESGGRLVTPGTPLTLTCTASGFSLSRYWMTWVRQAPGKGLEYIGWIDRSGNTYFADWAKGRFTGSKTSTTRDLKITSPTTEDTATYFCGRGGQNNGYDLWGPGTLVTVSS
VL: AAVLTQTPSPVSAAVGGTVTISCQSSESVYSNNFLSWYQLKPGQRPRLLIYEASKVASGVPSRFSGSGSGTQFTLTISGVQCDDAATYYCAGGYDVSDDAFGGGTEVLVK
notes: Rabbit full length IgG made recombinantly in FreeStyle 293-F cells; For SPR it was captured from HEK culture supernatant on goat anti-rabbit F(ab)2; no sentence ties 1H11 to them directly; also called rabbit monoclonal anti-CSF-1R antibody
In general, Kd refers to the free concentration of one partner at which half of the binding sites on the other are occupied at equilibrium, for simple one-to-one binding. A low value points to tighter binding. Usually koff stands for a measure of how fast the partners let go of each other. A lower koff goes with a long-lived complex. The kon is the second-order rate constant of association. As to B1, the binding result (in test [1]; in the test with TtSlyD-CSF1R) was “binds” in each case. Also, in [2], the dissociation constant Kd was 0.2 nM. This molecule also had a koff in [2] of 0.000122 s⁻¹. For the same molecule, the on-rate (kon) in test [2] came out at 578000 M⁻¹ s⁻¹. Besides, the % Signal turned out to be 73.9% in [3]; 49.8% in test [4]; 48.9% in test [5]; 55.3% in test [6]; 62.6% in test [7]; 57.1% in [8]. Further, the % Signal in test [9] stood at 100%; in [10] it was 45.7%; in test [11], 91.8%.

These data come from patent publication US20220235139A1 (ROCHE DIAGNOSTICS OPERATIONS, published 2022).
